Assay in all cases: SPR
(Surface plasmon resonance follows binding to a sensor surface in real time, without labels.)

In assay [1] the target is IgV domain of mouse C57BL/6 SIRPα (Mus musculus, strain C57BL/6, UniProt P97797, strain).
Assay [2] concerns the target IgV domain of human SIRPγ (Homo sapiens, SIRPγ NP_061026.2, UniProt Q9P1W8).
Assay [3] concerns the target IgV domain of human SIRPβ1 (Homo sapiens, SIRPβ1 NP_006056.2, UniProt O00241).
For assay [4], the target named is IgV domain of human SIRPα v2 (Homo sapiens, SIRPα allele v2 …, strain).
Assay [5] addresses T1, IgV domain of cynomolgus SIRPα (Macaca fascicularis, EHH65484.1 allele).
T1 chain: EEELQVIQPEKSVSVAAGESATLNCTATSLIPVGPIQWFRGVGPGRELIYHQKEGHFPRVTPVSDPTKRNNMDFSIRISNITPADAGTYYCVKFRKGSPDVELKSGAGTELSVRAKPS

Assay [6] addresses IgV domain of human SIRPα v1 (Homo sapiens (Human)., UniProt P78324-1).
Assay [7] addresses T2, IgV domain of mouse BALB/c SIRPα (Mus musculus, strain BALB/c, strain).
T2 chain: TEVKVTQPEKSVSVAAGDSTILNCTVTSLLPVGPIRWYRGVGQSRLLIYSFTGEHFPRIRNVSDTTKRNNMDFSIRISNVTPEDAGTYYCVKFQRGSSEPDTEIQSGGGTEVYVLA

The target of assay [8] is T3, IgV domain of mouse NOD SIRPα (Mus musculus, strain NOD, strain).
T3 chain: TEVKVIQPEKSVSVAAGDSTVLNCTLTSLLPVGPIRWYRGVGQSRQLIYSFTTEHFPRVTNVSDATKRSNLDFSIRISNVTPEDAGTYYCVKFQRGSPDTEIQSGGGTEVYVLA

IgV domain of human SIRPα v1, sequence (P78324 31-149): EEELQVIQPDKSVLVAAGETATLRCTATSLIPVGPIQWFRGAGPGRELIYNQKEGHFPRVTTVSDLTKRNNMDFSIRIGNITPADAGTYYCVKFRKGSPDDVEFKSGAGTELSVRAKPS

B1: anti-SIRPα antibody clone 115, full-length IgG1 (antibody, V domains shown)
VH: DVQLVESGGGVVRPGESLRLSCAASGFSFSSYAMNWVRQAPGEGLEWVSRINSGGGGTDYAESVKGRFTISRDNSENTLYLQMNSLRAEDTAVYYCAKQYDWNSFFDYWGLGALVTVSS
VL: ETVLTQSPATLSVSPGERATLSCRASQTVGSKLAWHQQKPGQAPRLLIYDATNRATGISDRFSGSGSGTDFTLTISSLQTEDSAVYYCQQYYYWPPYRFGGGTKVEIK
By Kd is commonly meant the equilibrium constant for the complex coming apart. Higher therefore signals weaker binding. Regarding B1, the binding result in assay [1] was “no binding (tested: 100 nM)”; in assay [2], “binds”; in assay [3], “binds”. Also, the Kd came out at 1.86 nM in assay [4], 2.41 nM in assay [5] and 0.426 nM in assay [6].

B2: anti-SIRPα antibody clone 119, full-length IgG1 (antibody, V domains shown)
VH: DVQLLESGGGVVQPGGSLRLSCAASGFSFSNFAMTWVRQAPGEGLEWVSTIGSGDTYYADSVKGRFTISRDNSKNTLYLQMNSLRAEDTAVYYCAKDSTVSWSGDFFDYWGQGTLVTVSS
VL: EIVLTQSPATLSVSPGERATFSCRASQNVKNDLAWYQQRPGQAPRLLIYAARIRETGIPERFSGSGSGTEFTLTITSLQSEDFAVYYCQQYYDWPPFTFGGGTKVEIK
Regarding B2, the binding result in assay [1] is “no binding (tested: 100 nM)”. The Kd in assay [2] stood at 0.267 nM; in assay [3] it was 0.342 nM; in assay [4] it was 0.0682 nM; in assay [5], 0.112 nM; in assay [6], 0.183 nM.

B3: anti-SIRPα clone 218, scFv-Fc (scFv, V domains shown)
VH: DVQLVESGGGVVRPGESLTLSCTASGFTFTSSTMNWVRQAPGEGLDWVSSISTSGVITYYADSVKGRATISRDNSKNTLYLRLFSLRADDTAIYYCATDTFDHWGPGTLVTVSS
VL: ALTQPASVSANPGETVKITCFGSSGNYGWFQQKSPGSAPVTVIHYNNKRPSDIPSRFSGSKSGSTGTLTITGVRAEDEAVYFCGAWETGSATFGAGTTLTVL
For B3, the results for the binding result in assay [1] and in assay [3] were “no binding (tested: 100 nM)” and “binds”, respectively. For the same molecule, the Kd worked out at 0.0636 nM in assay [2], 0.276 nM in assay [4], 0.0599 nM in assay [5] and 0.123 nM in assay [6].

B4: anti-SIRPα antibody clone 136, full-length IgG1 (antibody, V domains shown)
VH: not shown
VL: ETVLTQSPGTLTLSPGERATLTCRASQSVYTYLAWYQEKPGQAPRLLIYGASSRATGIPDRFSGSGSGTEFTLTISSLQSEDFAVYYCQQYYDRPPLTFGGGTKVEIK
On to B4, for which the Kd in assay [7] was determined as 0.35 nM; in assay [1] it was 12.7 nM; in assay [2] it was 23.9 nM; in assay [3], 4.35 nM; in assay [4], 1.63 nM; in assay [8] it was 0.554 nM. The values for the Kd in assay [5] and in assay [6] were 2.15 nM and 0.458 nM, respectively.

B5: anti-SIRPα antibody clone 3, full-length IgG1 (antibody, V domains shown)
VH: AVTLDESGGGLQTPGGALSLVCKASGFIFSDYGMNWVRQAPGKGLEFVAQITSGSRTYYGAAVKGRATISRDNRQSTVKLQLNNLRAEDTGIYFCARDFGSGVGSIDAWGNGTEVIVSS
VL: ALTQPASVSANLGGTVKITCSGSRGRYGWYQQRSPGSAPVTVIYRDNQRPSNIPSRFSSSTSGSTSTLTITGVQADDESVYFCGSYDGSIDIFGAGTTLTVL
With B5, the Kd in assay [7] is 1.16 nM; in assay [1] it was 3.65 nM; in assay [2], 83.6 nM; in assay [3], 1.63 nM; in assay [4] it was 0.0767 nM; in assay [8], 1.63 nM. Besides, the Kd in assay [5] is 2.29 nM; in assay [6], 0.162 nM.
